Assay results published in paper PMC8670721.

Experiments:
[1] = system: LIN28A (LIN28-TAT recombinant protein, Peprotech); test: EMSA
[2] = system: LIN28A (LIN28-TAT recombinant protein, Peprotech); test: filter binding

biotin-labeled pre-let-7a
Kd [1]: 25 nM
Kd [2]: 10 nM
